Laboratory results taken from paper PMC3197213 (Structure (London, England : 1993), 2011).

Target: rat syntaxin-1A SNARE motif (residues 191-253) (rat, UniProt P32851 191-253)
Assay: NMR titration

rat syntaxin-1A SNARE motif (residues 191-253), sequence (P32851 191-253): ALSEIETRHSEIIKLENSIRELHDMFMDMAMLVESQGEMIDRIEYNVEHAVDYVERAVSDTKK

Kd: > 300 µM
B1: Rat Munc13-1 MUN-CD module (1148-1407,EF,1453-1531 fragment) (domain or fragment)
chain: not shown
